Measurements: IntAct's records for PubMed 28325809

B1: Pleckstrin homology domain-containing family M member 1 (Homo sapiens), Q9Y4G2 (parent)
chain: MLSVVENGLDPQAAIPVIKKKLVGSVKALQKQYVSLDTVVTSEDGDANTMCSALEAVFIHGLHAKHIRAEAGGKRKKSAHQKPLPQPVFWPLLKAVTHKHIISELEHLTFVNTDVGRCRAWLRLALNDGLMECYLKLLLQEQARLHEYYQPTALLRDAEEGEFLLSFLQGLTSLSFELSYKSAILNEWTLTPLALSGLCPLSELDPLSTSGAELQRKESLDSISHSSGSEDIEVHHSGHKIRRNQKLTASSLSLDTASSSQLSCSLNSDSCLLQENGSKSPDHCEEPMSCDSDLGTANAEDSDRSLQEVLLEFSKAQVNSVPTNGLSQETEIPTPQASLSLHGLNTSTYLHCEAPAEPLPAQAASGTQDGVHVQEPRPQAPSPLDLQQPVESTSGQQPSSTVSETAREVGQGNGLQKAQAHDGAGLKLVVSSPTSPKNKSWISEDDFYRPSREQPLESASDHPIASYRGTPGSRPGLHRHFSQEPRKNCSLGALDQACVPSPGRRQAQAAPSQGHKSFRVVHRRQMGLSNPFRGLMKLGTVERRGAMGIWKELFCELSPLEFRLYLSNEEHTCVENCSLLRCESVGPAHSDGRFELVFSGKKLALRASSQDEAEDWLDRVREALQKVRPQQEDEWVNVQYPDQPEEPPEAPQGCLSPSDLLSEPAALQGTQFDWSSAQVPEPDAIKESLLYLYMDRTWMPYIFSLSLEALKCFRIRNNEKMLSDSHGVETIRDILPDTSLGGPSFFKIITAKAVLKLQAGNAEEAALWRDLVRKVLASYLETAEEAVTLGGSLDENCQEVLKFATRENGFLLQYLVAIPMEKGLDSQGCFCAGCSRQIGFSFVRPKLCAFSGLYYCDICHQDDASVIPARIIHNWDLTKRPICRQALKFLTQIRAQPLINLQMVNASLYEHVERMHLIGRRREQLKLLGDYLGLCRSGALKELSKRLNHRNYLLESPHRFSVADLQQIADGVYEGFLKALIEFASQHVYHCDLCTQRGFICQICQHHDIIFPFEFDTTVRCAECKTVFHQSCQAVVKKGCPRCARRRKYQEQNIFA
B2: ADP-ribosylation factor-like protein 8B (Homo sapiens), Q9NVJ2 (parent)
chain: MLALISRLLDWFRSLFWKEEMELTLVGLQYSGKTTFVNVIASGQFSEDMIPTVGFNMRKVTKGNVTIKIWDIGGQPRFRSMWERYCRGVNAIVYMIDAADREKIEASRNELHNLLDKPQLQGIPVLVLGNKRDLPNALDEKQLIEKMNLSAIQDREICCYSISCKEKDNIDITLQWLIQHSKSRRS

Columns and labels:
[1] = variants of: B1; conditions: with arl8b_human ARL8B
[2] = variants of: B1; conditions: with rab7a_human RAB7A
[3] = variants of: B1; conditions: with arl8b_human ARL8B; remark: listed apart in the source
[4] = variants of: B1; conditions: with mlp3b_human MAP1LC3B
[5] = variants of: B1; conditions: with mlp3b_rat Map1lc3b
[6] = variants of: B2; conditions: with pkhm1_human PLEKHM1, Q9Y4G2

Row | Variant | effect of a mutation on the interaction [1] | effect of a mutation on the interaction [2] | effect of a mutation on the interaction [3] | effect of a mutation on the interaction [4] | effect of a mutation on the interaction [5] | effect of a mutation on the interaction [6]
1 | R117A;R119A | disrupting interaction strength | with no effect | decreasing interaction strength | – | – | –
2 | H63A | disrupting interaction strength | with no effect | with no effect | – | – | –
3 | H60A | disrupting interaction strength | with no effect | decreasing interaction strength | – | – | –

Continued, values first:

Row | effect of a mutation on the interaction [1] | effect of a mutation on the interaction [2] | effect of a mutation on the interaction [3] | effect of a mutation on the interaction [4] | effect of a mutation on the interaction [5] | effect of a mutation on the interaction [6] | Variant
4 | disrupting interaction strength | with no effect | decreasing interaction strength | disrupting interaction strength | disrupting interaction strength | – | H60A;R117A;R119A
5 | disrupting interaction strength | with no effect | – | – | – | – | R123A
6 | – | – | – | – | – | with no effect | Q75L
7 | – | – | – | – | – | disrupting interaction strength | T34N
